From the DeepSol protein solubility set

Assay: soluble on expression in E. coli; label from the status in PepcDB or PDB records

Sequence | soluble on expression in E. coli
MIMSKIKLTKNDLKKQKDELKMFKRYLPTLQLKKQQLYMEIVKIENSYKIKNLEQQKLKENISNWISLFSEKFPFESWIQVKTVVKKSLNIAGVAIPIFDSIEYEDIRHDLLFTPYWVDKGIEILKVVIQIDVELKILKKQIDLLLREFRITSQRVNLFEKVMIPTAKANIKKINIYLGDQQTAAVVRGKIAKSSLIKKNRNSLLEHHHHHH | not soluble
MTDHSNTRVVVGMSGGVDSSVVALLLKQQGYDVVGVFMKNWDDTDENGVCTATEDYKDVAKVADKIGIPYYSINFEKEYWDRVFTYFLDEYKKGRTPNPDVICNKEIKFKAFLDYAMDLGADYIATGHYARLQHDEDGTMHLLRGVDSNKDQTYFLSQLDSKTLQKVMFPLGEMVKPDVRKLALNAGLATAKKKDSVGICFIGEKNFKEFLGHYLPATPGKMMTFDGQVKGEHAGLMYYTIGQRRGLGIGGDGEDNEPWFVVGKDLKKNILYVGKGYHNPHLYATHLKASDLHFVTDEDLGNDFHVTAKFRYRQKDSGVTVHFNDDHTEVTVTFDDPVRAITPGQAVVFYNGEECLGSGMIDAAYNDERVLQYVLEHHHHHH | not soluble
MGSDKIHHHHHHMRICPVPRSAPAGCARIRCLRRCAVFGRSCPKLGLWSSGARTLSHPPCADVNWPNTLCAQHVACALRSHCLTLRAPHALLGRAVRKAGDLMTTAGFQSIDAVQSELSEAGYVCGRALATVVFLSTRLGRPLFLEGEAGVGKTEIAKALAAVTGRPLIRLQCYEGLDAASAVYEWNFAAQMMAIRMAESAGQSDREALQAELFSQDYLIARPLLQAMQPDARGTPILLIDELDRTDAPFEAFLLEALSDFQVTIPELGTIRAPEPPMVILTSNRTREVHDALKRRCLYHWVDYPDFDRELEILTAQVPTASEALSRQVVAFVQSLRTEDLFKKPGVAETIDWANCLLALDVVNLSPETIADTLGALLKYQDDIARLQGSEAKRLLDEARSLLQEH | not soluble
MGSDKIHHHHHHVKKLELYTGTEQGKPAIGIRLGGEASIQDLLDLWQPLCDDSELFKSYAAGNHATCRGCLHNCCQTAYVIPDLISFKKMAAHLHLTYKEFLSADFFDAEKLEAGIVRMKPNPCIFLQDNICSIYPLRSLICRFYICCQLMGDCEQLIYSICWSGSAATQLFAEQEGLINSKGSGALSSFDLMFKRLMEEYRFDPRVQLFLQANDYYDIPLSAFTAADI | not soluble
GIDPFTFENATSDAINQDMMLYIERIAKIIQKLPKRVHINVRGFTDDTPLVKTRFKSHYELAANRAYRVMKVLIQYGVNPNQLSFSSYGSTNPIAPNDSLENRMKNNRVEIFFSTDANDLSKIHSILDNEFNPHKQQE | soluble
MGNQAGSKTKLVIIQGPTASGKSELAVRLAEACGGDVVNADSMQVYRGMDIGTAKPSPELVARVPHHLYDIVDPDVNFTAADYRREAGRVITEIHSRGKRPILVGGTGLYIKTLIGGLAPSPGADDTIRAELEEDARSEGAAALHDRLAQVDPAAAARLHPNDRVRIVRALEVFLMTGKPLSEFQEEHRFADEPYDCLKLGISVERDDLYRRINERVNRMFAEGFVEEVSGLLNAGYSPDLKAMGAIGYKEVCAYLAGTCSLDEARELVQRNTRRYAKRQLTWFRKDPAIKWVEYPANFDSISTIAMKFFGLEHHHHHH | not soluble
MSLTPEHLPTEQYEAQLAEKVVRLQSMMAPFSDLVPEVFRSPVSHYRMRAEFRIWHDGDDLYHIIFDQQTKSRIRVDSFPAASELINQLMTAMIAGVRNNPVLRHKLFQIDYLTTLSNQAVVSLLYHKKLDDEWRQEAEALRDALRAQNLNVHLIGRATKTKIELDQDYIDERLPVAGKEMIYRQVENSFTQPNAAMNIQMLEWALDVTKGSKGDLLELYCGNGNFSLALARNFDRVLATEIAKPSVAAAQYNIAANHIDNVQIIRMAAEEFTQAMNGVREFNRLQGIDLKSYQCETIFVDPPRSGLDSETEKMVQAYPRILYISCNPETLCKNLETLSQTHKVERLALFDQFPYTHHMECGVLLTAKEGHHHHHH | soluble
MGSDKIHHHHHHMLKNDQLDQWDRDNFFHPSTHLAQHARGESANRVIKTASGVFIEDRDGTKLLDAFAGLYCVNVGYGRQEIAEAIADQARELAYYHSYVGHGTEASITLAKMILDRAPKNMSKVYFGLGGSDANETNVKLIWYYNNILGRPEKKKIISRWRGYHGSGLVTGSLTGLELFHKKFDLPVEQVIHTEAPYYFRREDLNQTEEQFVAHCVAELEALIEREGADTIAAFIGEPILGTGGIVPPPAGYWEAIQTVLNKHDILLVADEVVTGFGRLGTMFGSDHYGLEPDIITIAKGLTSAYAPLSGSIVSDKVWKVLEQGTDENGPIGHGWTYSAHPIGAAAGVANLKLLDELNLVSNAGEVGAYLNATMAEALSQHANVGDVRGEGLLCAVEFVKDRDSRTFFDAADKIGPQISAKLLEQDKIIARAMPQGDILGFAPPFCLTRAEADQVVEGTLRAVKAVLG | not soluble
MPSKQVGWWTMSEHTNDEVQPTALSGNDAVNRAAEQWKESAHRNIPGLGDLPIPDDTANLREGPNLHDGLLALLPLVGVWRGTGHADTAEEGQYAFGQQITFAHDGENYLTYESRIWKLDDEGNSTDLDYRESGFWRISLKDEIEVVLTHSTGVAEIFYGEPMNERAWQIESASTMVTAQGPATLGPGKRLYGLMPNNNLGWVDERMVDGEMRPRMSAELSRVIG | not soluble
MGSDKIHHHHHHMIKVNRYEIFLDFSFQTGDYKGYEKIEMESDEETVVLDAVGLKIVKAKVNGKEIEFSQDESRVNVKSGSFSGILEVEFEGKVTERKLVGIYKASYKDGYVISTQFEATHARDFIPCFDHPAMKARFKLTVRVDKGLKVISNMPVVREKEENGKVVYEFDETPKMSTYLLYLGIGNFEEIRDEGKIPTIIVATIPGKVQKGRFSMQISRNSIEFYEKYFEIPYQLPKVHLIAIPEFAYGAMENWGAITFRETALLADDSSSVYQKFRVAEVVAHELAHQWFGNLVTLKWWDDLWLNESFATFMSHKAISQLFPSWNFWDYFVLNQTSRALEKDSVSTTHPIEAHVRDPNEVEQMFDDISYGKGASILRMIEAYVGEENFRRGVVNYLKKFSYSNAQGSDLWNSISEVYGSDISPIMADWITKPGYPMVRVSVSGKRVSLEQERFSLIGNVENLLYKIPLTMEVNGKVVTHLLDKERDTMVFEEDVKSLKVNVNRTGFYRVFYYNNSDLVFNSNLSELDKWGIINDYWAFLLAGKIGFKEYERVISKFFNDKDFLPVNELSNELFTLHAINPDKYQGIAKEFHRIQLKNWRNSKDELGRLTYSNILYRLAAIDDEFSLGLSELFRFYGSLDSDTRQGVAVAYAITYEDNSVDELLERFRKETFDEEKLRYLTAMLFFRKPYLVGNTLSLILSGEIKKQDIPLTLSTAAYNPYAKSAVLNWIKMHINFMREAYKGTGILGRRLAEVIPLIGIGAERETEQFFSNLNMPEAERGIGTGLELLKAYSRLK | not soluble
MGSDKIHHHHHHMKAVNENLKEQFVKRNKLAICATLRELKKNDTSLMVHHSHGQFISKILDVVPDNNLFVFDLGGIERENSRALYAGALSFIAEPAGAKVEFNAEIAKTVNYDGLPAFSAQIPELLYLIQRRTYFRINTPLWPPLTCRGELPDDSVFTFTIKDLSLGGLSLYTDRDTTGLLTEGDIIKSVEMDLADHGFFCVDLQFVGQAMVKIVDNKGELKLTQRLSFKFPSLNAAQERDLQQVIFELEKLQNEKKKRFQEL | not soluble
MGKLALAAKITHVPSMYLSELPGKNHGCRQGAIDGHKEISKRCREMGVDTIIVFDTHWLVNSAYHINCADHFEGVYTSNELPHFIRDMTYNYEGNPELGQLIAEEALKLGVRAKAHNIPSLKLEYGTLVPMRYMNEDKHFKVVSISAFCTVHDFADSRKLGEAILKAIEQYDGTVAVLASGSLSHRFIDDQRAEEGMNSYTREFDRQMDERVVKLWREGQFKEFCNMLPEYADYCYGEGNMHDTVMLLGMLGWDKYDGKVEFITELFPSSGTGQVNAVFPLPA | not soluble
MSDSASNTENSIQIEIFPSRILSPETAQKLLVELSQVDGILRVMIQGNRLPEKVGYGPGTGEKVEHPLRKPIQIGGQVIELRVSVGRIRLEVLNAEVKENVRAVCEKMLPFSFEFREGHFLRRKPTVTDYAKLGPEADPRLLGMVDPKAKINQLVFIEKQEKEDDEDKDELEHHHHHH | soluble
MKEILDHYGSLLSRIDDWFRACLDSSGDRIRCADGCSDCCRGLFDITLLDAAFLRRGFDRLDPEVREQVLVRCRERIAILRLVWPEFDQPFILNMRPDDEWEALMPDDDETPCPLLDRHGRCLVYEHRPMTCRLHGLPLVDVSGEIMHDEWCTLNCIDADPLADPALRGDFDRIFTEEVRLIRTFAGRLLGHPLSEVDTFIPTALVIAFDSINWLSWGNRLAALSLSDPRSKLEHHHHHH | not soluble
MGSDKIHHHHHHFRSFLMRDREKARKYVLKEIEKFGKRAFTWLFSDVVVEGSENIPKDRNFIVVANHQSLMDIPLILGFVATGAFIAKEELRKIPGVNWYIRYLNGVFLDRKNPRRAVRALREAIEKLKNGVTFIVFPEGTRSPDGKVLSFKKDSLMIAVKTGVPVLPVSIWGTYHLIPKGRWTFTPGKVFLKIHEPVDPKGFSSEEELRKYVEEVVKRGVEELKARWSK | not soluble
MSLRIPDKNNLMIYELLLRDFTATGDLNGAMEKIGYLKSLGFNAVELMPVQEFDGNDSWGYNPCFHFALDKAYGTDHMYKAFIDKCHEVGMAVLFDVVYNHASGSHPFARLYWDTKNNRTAADNPWFNVKEPHPYGVFHDFNHDSPLVRAFVKRNLKFLLEEYRIDGFRFDMTKGFTQNSSTEATAGSYDASRIAILKDYNETVREVNPEAVVILEHFCDEKEESELAEEGMQLWRNLNNAYCQSAMGYPSNSDFTPLVTFGTTMPYGGWVGFMESHDEERTAFKQIAYGEGPLKSDINVRMKQLAANASFFFTAPGPKMVWQFGEMGYDVSIEEGGRTGRKPLHWEYLDNEARKGLCNTYAKLLKLRREHSELFNPGSTFSWLVKTANWTGGRFLTLAATNGKRLVVVGNFTAKPIEAITSFPVTGVWTNYLDGTKLHVTSIPTGLMIPAHECRVYINEGHHHHHH | not soluble
MGSDKIHHHHHHMRLPQKMFKIDTYLSPGEAFHFVRKELSEASPVLEHDHDYYELFLIQQGQVYHWINGLEEMLEPGHMVFVRPSDRHALQGAPGTGAKILNVMFRTQTAAHLVTRYADVFGGRFFWQPGPLPVTLRLHGPQRERAINSMLTLDTSFRNLARIELFLLSVMTHVLDTGEIVDGRAPGWLLQACHAAREPRVFRQGADGFLHAAGRSQAHVCRQARRYLGLSPTQYVNRIRIQHAAMLLAGTERGLPDIAADCGFENLSYFHRLFREQYGTTPRGYRHRHVRPIAPL | not soluble
MVNKKRQVRFEFFQVNGKAQEGEKIVKGLFDLYPLADRINSISNYTDRDVILFGEKVRMDRFFEVSSSPELYAMHFTRLRNDKPAYVELNNEVLKEIPLNPGEYIAEDISCLYDRELSVLMVQRNIHSLSPSGIEDYFTEMSDDLVEIELLPVVNKEIISKALANEKFRKLELRAGSMNTTSDRSGLRKVLGPFMELFEKFEGTNFVIEISSGRSKKDLSEDQMKEVITAIEQDKSLFSSAIVSAKKSKEVPVEKYDLINGKLYVYRSFDLPDGAFLKSDSVIDNIKNYYFHPNEGGYRKQIIDAVK | not soluble
MGSDKIHHHHHHMVNAAQAVMESSGQFHVEPEGVIRMSVPKAVGHFMIHPHLPEFLERYPKIDIQMLLEDRYVDLIDDGVDLALRITEQPPGGLMGRKLIDIDHLVCATPEYLSKHGTPNHPHDLKQHECIYLGEQASDSKWKFQQGNKSISVAVRGRYAANHTGVRLSAALQHLGIASLPYFVARHALQQGTLVQVLPDWYFKTYYSGGLWLLYPPTRHVQPKLSVLIQYLADKLAAEPTLFKLK | not soluble
MKYKIIVIDVFNTLLNNKYELTEENRNALLYIQKELGIRVVLTSGRTVAALKPLAEELNLREYSGYLIPYHGGQIVNCRSGKVIASHRMATSFVEVLDARARAEGVTLLAFGKDSIFSTDPHDPLAVKESDICGQPLVSKHPRSSEVIKCSFVGEAEKIAELEVVMRRDYGDKLNIFRSSETLLECLPSE | not soluble
